# Results published in publication doi:10.1101/2024.03.27.586411 (2024).
# “And” between values parts separate entries of the source, which are not always exact repeats. Identical values can stand only once.
# T1: PDCoV_(IL121_2014) receptor-binding domain (Porcine deltacoronavirus (PDCoV), …)
# T1 chain: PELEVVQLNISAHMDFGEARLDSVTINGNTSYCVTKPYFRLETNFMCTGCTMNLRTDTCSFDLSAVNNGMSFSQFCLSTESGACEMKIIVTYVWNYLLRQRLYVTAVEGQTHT
# B1: PD33 Fab fragment (Fab, V domains shown)
# VH: EVQLVESGGGLVQPGGSLRLSCAASGFTFSHYTMNWVRQAPGRGLEWVSSITTSSNFIYYADSVKGRFTISRDNTKNSLYLQMNSLSAEDTAVYFCARGGWELSYFDFWGQGTLVTVSS
# VL: DIVMTQSPLSLPVTLGQPASISCRSSQSLVYSDGNTFLNWFQQRPGQSPRRLIYKVSNRDSGVPDRFSGSGSGTDFTLRISRVEAEDVGFYYCMQGTHWPPTFGPGTKVEIK
# B2: PD41 Fab fragment (Fab, V domains shown)
# VH: HSQLQESGPGLVKPSQTLSLTCTVSGGSISSAGYYWNWIRQHPGKGLEWIGYIYYSGNTYYNPSLKSRVTISVDTSKSQFSLKLNSVTAADTAVYYCARKIVNWFDPWGQGTLVTVSS
# VL: QSALTQPASVSGSPGQSITISCTGTSSDVGGYNYVSWYQQHPGKAPKLMIYDVSERPSGVSNRFSGSKSGNTASLTISGLQAEDEADYFCCSYAGYTTYVVFGGGTQLTVL
# Assays:
# [1] = molecular target: human APN ectodomain, Fc fusion (human) (UniProt P15144); assay: BLI; RBD to hAPN-Fc, series from 5 uM two-fold down to 39 nM; apparent KD; Octet Red, 30 C, 10 x Kinetics Buffer; 1:1 binding model; who was immobilised is not told for this series
# human APN ectodomain, Fc fusion (human), sequence (P15144 66-967): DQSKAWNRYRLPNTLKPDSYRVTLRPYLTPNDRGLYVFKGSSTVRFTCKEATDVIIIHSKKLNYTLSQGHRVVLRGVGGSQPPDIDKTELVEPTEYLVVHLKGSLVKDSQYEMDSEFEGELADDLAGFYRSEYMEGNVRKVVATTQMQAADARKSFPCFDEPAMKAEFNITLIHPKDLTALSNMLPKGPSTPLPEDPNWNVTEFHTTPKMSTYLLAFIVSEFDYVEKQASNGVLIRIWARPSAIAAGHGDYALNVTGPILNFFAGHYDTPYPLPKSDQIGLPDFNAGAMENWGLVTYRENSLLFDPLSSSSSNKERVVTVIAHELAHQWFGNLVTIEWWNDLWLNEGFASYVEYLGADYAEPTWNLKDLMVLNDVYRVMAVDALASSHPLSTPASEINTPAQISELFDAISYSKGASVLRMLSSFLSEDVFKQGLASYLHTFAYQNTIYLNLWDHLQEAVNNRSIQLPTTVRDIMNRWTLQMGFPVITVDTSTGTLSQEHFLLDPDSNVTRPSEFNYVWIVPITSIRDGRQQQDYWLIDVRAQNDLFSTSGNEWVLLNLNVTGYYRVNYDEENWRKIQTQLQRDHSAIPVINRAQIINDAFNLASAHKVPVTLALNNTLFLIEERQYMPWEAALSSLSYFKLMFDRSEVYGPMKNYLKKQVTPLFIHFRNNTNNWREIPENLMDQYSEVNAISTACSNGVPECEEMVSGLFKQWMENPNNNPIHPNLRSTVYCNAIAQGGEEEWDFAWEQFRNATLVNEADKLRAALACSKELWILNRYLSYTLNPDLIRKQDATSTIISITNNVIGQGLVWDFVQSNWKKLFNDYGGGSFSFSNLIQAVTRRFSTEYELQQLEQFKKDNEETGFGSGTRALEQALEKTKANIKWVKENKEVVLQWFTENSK
# [2] = molecular target: PDCoV S_(SD2018) ectodomain trimer (Porcine deltacoronavirus (PDCoV), isolate SD2018/300); assay: cryo-EM structure; 1.5 uM PDCoV S SD2018/300 with 4.5 uM PD41 Fab, 1 hour at 4 C; 3D classification into four classes, local refinement of the RBD:PD41 region
# [3] = molecular target: T1, PDCoV_(IL121_2014) receptor-binding …; assay: BLI
# [4] = molecular target: T1, PDCoV_(IL121_2014) receptor-binding …; assay: BLI
Molecule,fold greater affinity than RBD (IL121 2014) [1],stoichiometry N [2],koff [3],Kd [4]
PDCoV SD2018/300 receptor-binding domain (domain or fragment),5 fold,–,–,–
PDCoV S_(SD2018) ectodomain trimer (natural protein),–,3,–,–
B1,–,–,0.000586 s⁻¹ and 0.000542 s⁻¹,4.36 nM
B2,–,–,0.00177 s⁻¹ and 0.002 s⁻¹,22.6 nM and 37.2 nM
